Laboratory results reported in publication PMC3680789.

Target: T1, ScPif1 (Saccharomyces cerevisiae, UniProt P07271 40-859)
T1 sequence: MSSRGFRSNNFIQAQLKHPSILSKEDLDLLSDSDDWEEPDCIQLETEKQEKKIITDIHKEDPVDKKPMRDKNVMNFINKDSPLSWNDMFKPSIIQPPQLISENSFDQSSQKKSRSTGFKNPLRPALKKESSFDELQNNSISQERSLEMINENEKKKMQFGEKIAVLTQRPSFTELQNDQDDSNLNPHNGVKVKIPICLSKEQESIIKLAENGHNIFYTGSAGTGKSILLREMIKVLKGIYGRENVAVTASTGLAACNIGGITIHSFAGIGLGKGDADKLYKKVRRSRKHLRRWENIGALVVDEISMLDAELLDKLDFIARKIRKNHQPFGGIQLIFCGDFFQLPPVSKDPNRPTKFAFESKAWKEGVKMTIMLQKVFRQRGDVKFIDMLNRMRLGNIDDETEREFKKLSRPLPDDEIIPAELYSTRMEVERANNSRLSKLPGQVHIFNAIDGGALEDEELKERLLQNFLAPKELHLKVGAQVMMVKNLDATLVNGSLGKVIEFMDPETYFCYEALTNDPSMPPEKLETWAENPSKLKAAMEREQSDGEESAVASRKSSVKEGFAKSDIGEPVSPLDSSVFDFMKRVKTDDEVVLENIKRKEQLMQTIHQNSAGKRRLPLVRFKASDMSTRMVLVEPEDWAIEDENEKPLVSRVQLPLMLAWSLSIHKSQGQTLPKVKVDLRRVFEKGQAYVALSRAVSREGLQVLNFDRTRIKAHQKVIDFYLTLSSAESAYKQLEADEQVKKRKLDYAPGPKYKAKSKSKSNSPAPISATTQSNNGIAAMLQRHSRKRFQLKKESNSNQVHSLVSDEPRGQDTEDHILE
Assay: filter binding

B1: G-rich 20-mer (GR) (ssDNA)
DNA: CGGCCCGGCGGTCCGCGGTC
  Kd: 0.04 nM

B2: non-G-rich 20-mer (NG) (ssDNA)
DNA: CAAAGGACCCTTTGTGGATC
  Kd: 0.2 nM
